Measurements from patent US20110039770A1 (PHARMAGAP, published 2011).

Columns and labels:
PKC-δ (purified isoform) [1] = target: T1, PKC-δ (purified isoform); experiment: competitive ELISA, coated purified PKC-δ, vs anti-PKC δ (SC-213); PRE 100 µM
T1 construct: also called PKC-delta
Method: (§1) Greiner 96 well ELISA plates were coated with the appropriate PKC isoform diluted in PBSN (PBS with Calcium/Magnesium+0.05% Sodium azide w/w). 50 μL/well at 250 ng/mL was used. Control wells contained PBSN only. Plates were incubated overnight at 4° C.
(§2) The plates were washed 3 times with 200 μL of dH₂O per well, then 100 μL of blocking solution was added per well and the plate incubated for 1 h at 37° C. The washing steps with dH₂O were repeated and 50 μL of the appropriate PRE solution (PRE stock solution [20 mM in DMSO] diluted in PBSN) was added and the plate incubated for 1 h at room temperature.
(§3) 50 μL of 1:1000 dilution of Alkaline Phosphatase (AP) conjugated antibody (anti-rabbit for all except zeta, which was anti-goat) was then added and the plate incubated for 1 h at room temperature. Washing with dH₂O was then repeated. Finally, 100 μL of pNPP solution in pNPP buffer (2 mM MgCl₂, 100 mM Sodium bicarbonate in water, pH 9.8) was added to all wells and incubated for 8 minutes for α, βI, βII ε, and ζ, or for 15-20 mins for δ (until sufficient coloration is observed). The reaction was stopped by addition of Stop solution (2N NaOH) and the absorbance at 405 nm was read on a Galaxy Plate reader.

PKC-α (purified isoform) [2] = target: T2, PKC-α (purified isoform) (Homo sapiens (Human), UniProt P17252 2-672); experiment: competitive ELISA, coated purified PKC-α, vs anti-PKC α (SC-208); PRE 200 µM
T2 construct: also called purified PKC-alpha; commercially purified PKC-alpha
Method: as §1, §2, §3

PKC-δ (purified isoform) [3] = target: T1, PKC-δ (purified isoform); experiment: competitive ELISA, coated purified PKC-δ, vs anti-PKC δ (SC-213); PRE 50 µM
Method: as §1, §2, §3

[4] = target: T3, PKC-βII (purified isoform) (Homo sapiens (Human), UniProt P05771 2-621); experiment: competitive ELISA, coated purified PKC-βII, vs anti-PKC βII (SC-210); PRE 200 µM
T3 construct: also called PKC-beta II; PKC beta 2
Method: as §1, §2, §3

PKC-α (purified isoform) [5] = target: T2, PKC-α (purified isoform); experiment: competitive ELISA, coated purified PKC-α, vs anti-PKC α (SC-208); PRE 100 µM
Method: as §1, §2, §3

[6] = target: T4, PKC-βI (purified isoform) (Homo sapiens (Human), UniProt P05771 2-671); experiment: competitive ELISA, coated purified PKC-βI, vs anti-PKC βI (SC-209); PRE 200 µM
T4 construct: also called PKC-beta I; PKC beta 1
Method: as §1, §2, §3

PKC-δ (purified isoform) [7] = target: T1, PKC-δ (purified isoform); experiment: competitive ELISA, coated purified PKC-δ, vs anti-PKC δ (SC-213); PRE 200 µM
Method: as §1, §2, §3

PKC-α (purified isoform) [8] = target: T2, PKC-α (purified isoform); experiment: competitive ELISA, coated purified PKC-α, vs anti-PKC α (SC-208); PRE 50 µM
Method: as §1, §2, §3

[9] = target: T3, PKC-βII (purified isoform); experiment: competitive ELISA, coated purified PKC-βII, vs anti-PKC βII (SC-210); PRE 100 µM
Method: as §1, §2, §3

[10] = target: T4, PKC-βI (purified isoform); experiment: competitive ELISA, coated purified PKC-βI, vs anti-PKC βI (SC-209); PRE 100 µM
Method: as §1, §2, §3

[11] = target: T3, PKC-βII (purified isoform); experiment: competitive ELISA, coated purified PKC-βII, vs anti-PKC βII (SC-210); PRE 50 µM
Method: as §1, §2, §3

[12] = target: T4, PKC-βI (purified isoform); experiment: competitive ELISA, coated purified PKC-βI, vs anti-PKC βI (SC-209); PRE 50 µM
Method: as §1, §2, §3

T1 sequence (Q05655 whole entry, stated change not applied, canonical isoform): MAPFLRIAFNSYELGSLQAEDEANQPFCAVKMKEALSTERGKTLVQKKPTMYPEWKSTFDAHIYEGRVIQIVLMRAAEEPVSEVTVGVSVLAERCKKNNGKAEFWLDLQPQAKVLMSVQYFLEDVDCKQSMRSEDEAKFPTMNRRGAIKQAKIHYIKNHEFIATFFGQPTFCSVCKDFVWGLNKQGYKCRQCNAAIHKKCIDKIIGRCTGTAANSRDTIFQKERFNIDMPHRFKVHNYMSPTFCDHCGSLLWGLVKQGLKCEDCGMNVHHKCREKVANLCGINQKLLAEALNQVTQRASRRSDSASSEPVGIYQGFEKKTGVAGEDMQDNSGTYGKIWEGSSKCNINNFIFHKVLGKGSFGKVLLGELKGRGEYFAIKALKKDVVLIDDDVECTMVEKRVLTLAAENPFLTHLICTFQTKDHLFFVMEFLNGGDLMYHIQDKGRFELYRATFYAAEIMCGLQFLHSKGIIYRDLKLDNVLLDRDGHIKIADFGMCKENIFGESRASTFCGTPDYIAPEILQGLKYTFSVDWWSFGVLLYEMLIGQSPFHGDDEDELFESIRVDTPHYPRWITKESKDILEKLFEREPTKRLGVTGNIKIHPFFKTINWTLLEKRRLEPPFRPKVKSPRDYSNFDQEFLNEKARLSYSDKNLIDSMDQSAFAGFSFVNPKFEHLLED
T3 sequence (P05771 other isoform, or with tags, fused parts or gaps limits assumed): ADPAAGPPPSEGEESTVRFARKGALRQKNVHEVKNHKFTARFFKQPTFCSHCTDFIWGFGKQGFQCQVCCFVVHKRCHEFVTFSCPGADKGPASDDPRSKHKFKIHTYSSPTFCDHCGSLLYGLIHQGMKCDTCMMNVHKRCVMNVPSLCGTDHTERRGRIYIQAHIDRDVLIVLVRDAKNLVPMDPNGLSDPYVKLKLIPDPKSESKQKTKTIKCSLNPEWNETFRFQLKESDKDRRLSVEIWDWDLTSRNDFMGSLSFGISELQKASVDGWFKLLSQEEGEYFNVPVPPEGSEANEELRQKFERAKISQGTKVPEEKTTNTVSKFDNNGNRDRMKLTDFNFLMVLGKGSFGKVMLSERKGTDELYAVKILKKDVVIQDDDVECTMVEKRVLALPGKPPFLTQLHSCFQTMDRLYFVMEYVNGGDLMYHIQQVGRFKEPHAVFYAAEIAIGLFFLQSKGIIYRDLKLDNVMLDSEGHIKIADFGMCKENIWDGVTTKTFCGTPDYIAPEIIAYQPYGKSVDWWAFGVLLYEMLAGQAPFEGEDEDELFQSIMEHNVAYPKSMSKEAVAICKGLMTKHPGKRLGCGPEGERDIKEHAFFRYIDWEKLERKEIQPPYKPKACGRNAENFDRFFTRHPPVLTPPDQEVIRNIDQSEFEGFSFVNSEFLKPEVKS
T4 sequence (P05771 2-671 limits assumed): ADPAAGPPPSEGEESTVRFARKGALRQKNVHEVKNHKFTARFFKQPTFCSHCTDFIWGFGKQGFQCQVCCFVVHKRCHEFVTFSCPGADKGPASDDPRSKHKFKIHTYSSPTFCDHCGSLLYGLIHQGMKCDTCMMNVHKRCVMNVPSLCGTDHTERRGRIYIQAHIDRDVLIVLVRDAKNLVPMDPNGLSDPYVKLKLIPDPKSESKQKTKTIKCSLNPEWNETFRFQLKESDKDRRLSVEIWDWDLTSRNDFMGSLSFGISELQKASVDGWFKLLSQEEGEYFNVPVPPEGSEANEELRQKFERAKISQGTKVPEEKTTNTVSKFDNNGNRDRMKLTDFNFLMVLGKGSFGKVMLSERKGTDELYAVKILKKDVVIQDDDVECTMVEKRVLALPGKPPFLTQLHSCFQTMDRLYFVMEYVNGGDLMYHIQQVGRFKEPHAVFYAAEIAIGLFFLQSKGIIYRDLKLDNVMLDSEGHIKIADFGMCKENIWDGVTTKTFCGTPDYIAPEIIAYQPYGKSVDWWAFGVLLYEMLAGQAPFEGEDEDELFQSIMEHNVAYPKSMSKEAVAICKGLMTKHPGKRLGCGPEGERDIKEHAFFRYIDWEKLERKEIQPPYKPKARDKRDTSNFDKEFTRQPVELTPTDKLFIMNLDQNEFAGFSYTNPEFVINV

With Ac-KDANQLIGISI-NH2 (also called peptide PRE 6) [PRE 6] the “relative binding capacity (100-%n, DMSO subtracted)” value (PKC-δ (purified isoform) [1]) was 13.2%, the “relative binding capacity (100-%n, DMSO subtracted)” value (PKC-α (purified isoform) [2]) was 0% and the “relative binding capacity (100-%n, DMSO subtracted)” value (PKC-δ (purified isoform) [3]) was 17.5%. For the same binder, the “relative binding capacity (100-%n, DMSO subtracted)” value [4] was 0%, the “relative binding capacity (100-%n, DMSO subtracted)” value (PKC-α (purified isoform) [5]) was 0% and the “relative binding capacity (100-%n, DMSO subtracted)” value [6] was 6.14%. For the same binder, the “relative binding capacity (100-%n, DMSO subtracted)” value (PKC-δ (purified isoform) [7]) was 14%, the “relative binding capacity (100-%n, DMSO subtracted)” value (PKC-α (purified isoform) [8]) was 0% and the “relative binding capacity (100-%n, DMSO subtracted)” value [9] was 0%. The “relative binding capacity (100-%n, DMSO subtracted)” value [10] was 7.93%, the “relative binding capacity (100-%n, DMSO subtracted)” value [11] was 0.08% and the “relative binding capacity (100-%n, DMSO subtracted)” value [12] was 0%.

Ac-ISIGILQNADK-NH2 (also called peptide PRE 7) [PRE 7] was tested, and the “relative binding capacity (100-%n, DMSO subtracted)” value (PKC-δ (purified isoform) [1]) was 0%, the “relative binding capacity (100-%n, DMSO subtracted)” value (PKC-α (purified isoform) [2]) was 6.59% and the “relative binding capacity (100-%n, DMSO subtracted)” value (PKC-δ (purified isoform) [3]) was 3.06%. For the same binder, the “relative binding capacity (100-%n, DMSO subtracted)” value [4] was 2.59%, the “relative binding capacity (100-%n, DMSO subtracted)” value (PKC-α (purified isoform) [5]) was 6.72% and the “relative binding capacity (100-%n, DMSO subtracted)” value (PKC-δ (purified isoform) [7]) was 0%. The “relative binding capacity (100-%n, DMSO subtracted)” value (PKC-α (purified isoform) [8]) was 0%, the “relative binding capacity (100-%n, DMSO subtracted)” value [9] was 11.1% and the “relative binding capacity (100-%n, DMSO subtracted)” value [11] was 5.42%.

In the case of ILEDKGGDAQNLIGISI (also called peptide PRE 8) [PRE 8], the “relative binding capacity (100-%n, DMSO subtracted)” value (PKC-δ (purified isoform) [1]) is reported as 3.38%, the “relative binding capacity (100-%n, DMSO subtracted)” value (PKC-α (purified isoform) [2]) is reported as 0% and the “relative binding capacity (100-%n, DMSO subtracted)” value (PKC-δ (purified isoform) [3]) is reported as 6.96%. For the same binder, the “relative binding capacity (100-%n, DMSO subtracted)” value [4] was 0%, the “relative binding capacity (100-%n, DMSO subtracted)” value (PKC-α (purified isoform) [5]) was 0% and the “relative binding capacity (100-%n, DMSO subtracted)” value (PKC-δ (purified isoform) [7]) was 6.68%. For the same binder, the “relative binding capacity (100-%n, DMSO subtracted)” value (PKC-α (purified isoform) [8]) was 0%, the “relative binding capacity (100-%n, DMSO subtracted)” value [9] was 0% and the “relative binding capacity (100-%n, DMSO subtracted)” value [11] was 1.11%.

In the case of Ac-ISIGILNQADK-NH2 (also called peptide PRE 10) [PRE 10], the “relative binding capacity (100-%n, DMSO subtracted)” value (PKC-δ (purified isoform) [1]) is reported as 0%, the “relative binding capacity (100-%n, DMSO subtracted)” value (PKC-α (purified isoform) [2]) is reported as 0% and the “relative binding capacity (100-%n, DMSO subtracted)” value (PKC-δ (purified isoform) [3]) is reported as 0%. For the same binder, the “relative binding capacity (100-%n, DMSO subtracted)” value [4] was 0%, the “relative binding capacity (100-%n, DMSO subtracted)” value (PKC-α (purified isoform) [5]) was 0% and the “relative binding capacity (100-%n, DMSO subtracted)” value [6] was 0%. For the same binder, the “relative binding capacity (100-%n, DMSO subtracted)” value (PKC-δ (purified isoform) [7]) was 9.47%, the “relative binding capacity (100-%n, DMSO subtracted)” value (PKC-α (purified isoform) [8]) was 0% and the “relative binding capacity (100-%n, DMSO subtracted)” value [9] was 0%. The “relative binding capacity (100-%n, DMSO subtracted)” value [10] was 4.35%, the “relative binding capacity (100-%n, DMSO subtracted)” value [11] was 0% and the “relative binding capacity (100-%n, DMSO subtracted)” value [12] was 3.77%.
